Measured values: patent publication US20220017589A1 (BEIJING QL BIOPHARMACEUTICAL, published 2022)
Residue numbers refer to the chain shown, from its start.

T1: human GFRAL (human, UniProt Q6UXV0 19-394)
T1 sequence (looked up): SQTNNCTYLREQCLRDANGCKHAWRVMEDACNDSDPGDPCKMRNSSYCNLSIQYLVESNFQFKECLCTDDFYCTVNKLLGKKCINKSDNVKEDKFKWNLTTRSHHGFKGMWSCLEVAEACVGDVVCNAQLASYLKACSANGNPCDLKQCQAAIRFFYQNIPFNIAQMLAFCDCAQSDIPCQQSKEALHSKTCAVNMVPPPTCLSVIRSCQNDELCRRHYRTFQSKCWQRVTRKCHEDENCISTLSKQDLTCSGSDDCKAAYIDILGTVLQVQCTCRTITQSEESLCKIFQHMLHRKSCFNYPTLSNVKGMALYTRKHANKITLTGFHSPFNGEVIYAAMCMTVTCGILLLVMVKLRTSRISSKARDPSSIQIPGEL

B1: MLC088 (ligand)
chain: HGEGTFTSDVSSYLEEQAAKEFIAWLVRGGGGAQPGAQPGAQPGAQPGAQPGAQPGAQPGAQPGQEPGAQPCQEPGAQPGQEPGAQPGQEPGAQPGQEPGAQPGQEPGAQPARQGDHCPLGPGRCCRLHTVRASLEDLGWADWVLSPREVQVTMCIGACPSQFRAANLHAQIKTSLHRLKPDTVPAPCCVPASYNPMVLIQKTDTGVSLQTYDDLLAKDCHCI
modifications: Moiety C (HOOC-(CH2)20-CO-gGlu-2XADO-EDA-CO-CH2) on 41C of Linker (72C of fusion polypeptide)
B2: MLC091 (ligand)
chain: B1 chain with E66C, C72G
modifications: Moiety B (HOOC-(CH2)16-CO-gGlu-2XADO-EDA-CO-CH2) on 35C of Linker (66C of fusion polypeptide)
B3: MLC090 (ligand)
chain: B1 chain with A69Q, Q70C, C72G
modifications: Moiety C (HOOC-(CH2)20-CO-gGlu-2XADO-EDA-CO-CH2) on 39C of Linker (70C of fusion polypeptide)
B4: MLC092 (ligand)
chain: B1 chain with E66C, C72G
modifications: Moiety C (HOOC-(CH2)20-CO-gGlu-2XADO-EDA-CO-CH2) on 35C of Linker (66C of fusion polypeptide)
B5: MLC013 (ligand)
chain: HGEGTFTSDVSSYLEEQAAREFIAWLVRGGGKQEPGAQPGQEPGAQPGQEPGAQPGQEPGAQPGQEPGAQPGQEPGAQPGAQPGAQPGAQPGAQPGAQPGAQPGAQPGAQPARQGDHCPLGPGRCCRLHTVRASLEDLGWADWVLSPREVQVTMCIGACPSQFRAANLHAQIKTSLHRLRPDTVPAPCCVPASYNPMVLIQRTDTGVSLQTYDDLLARDCHCI
modifications: Moiety A (HOOC-(CH2)16-CO-gGlu-2XADO) on 1K of Linker (32K of fusion polypeptide)
B6: MLC047 (ligand)
chain: B5 chain with K32G, P71K
modifications: Moiety A (HOOC-(CH2)16-CO-gGlu-2XADO) on 40K of linker (71K of fusion polypeptide) per Table 2; Table 3 prints 41K of linker
B7: MLC018 (ligand)
chain: B5 chain with K32G, A81Q, Q82E, P83K, A89Q, Q90E, A97Q, Q98E, A105Q, Q106E
modifications: Moiety A (HOOC-(CH2)16-CO-gGlu-2XADO) on 52K of Linker (83K of fusion polypeptide)
B8: MLC016 (ligand)
chain: B5 chain with K32G, P83K
modifications: Moiety A (HOOC-(CH2)16-CO-gGlu-2XADO) on 52K of Linker (83K of fusion polypeptide)
B9: MLC074 (ligand)
chain: B5 chain with R20K, K32G, G72C, R180K, R202K, R218K
modifications: Moiety B (HOOC-(CH2)16-CO-gGlu-2XADO-EDA-CO-CH2) on 41C of Linker (72C of fusion polypeptide)
B10: MLC075 (ligand)
chain: B5 chain with R20K, K32G, G72C, R180K, R202K, R218K
modifications: Moiety C (HOOC-(CH2)20-CO-gGlu-2XADO-EDA-CO-CH2) on 41C of Linker (72C of fusion polypeptide)
B11: MLC083 (ligand)
chain: B5 chain with R20K, K32G, A69Q, Q70C, R180K, R202K, R218K
modifications: Moiety B (HOOC-(CH2)16-CO-gGlu-2XADO-EDA-CO-CH2) on 39C of Linker (70C of fusion polypeptide)
B12: MLC084 (ligand)
chain: B5 chain with R20K, K32G, A69Q, Q70C, R180K, R202K, R218K
modifications: Moiety C (HOOC-(CH2)20-CO-gGlu-2XADO-EDA-CO-CH2) on 39C of Linker (70C of fusion polypeptide)
B13: MLC103 (ligand)
chain: B5 chain with K32G, Q102K
modifications: Moiety A (HOOC-(CH2)16-CO-gGlu-2XADO) on 71K of Linker (102K of fusion polypeptide)
B14: MLC046 (ligand)
chain: B5 chain with K32G, P91K
modifications: Moiety A (HOOC-(CH2)16-CO-gGlu-2XADO) on 60K of linker (91K of fusion polypeptide)
B15: MLC045 (ligand)
chain: B5 chain with Q86K
modifications: Moiety A (HOOC-(CH2)16-CO-gGlu-2XADO) on 1K and 55K of Linker (32K and 86K of fusion polypeptide)
B16: MLC004 (ligand)
chain: B5 chain with R20K, K32G
modifications: Moiety A (HOOC-(CH2)16-CO-gGlu-2XADO) on 26K of GLP-1 (20K of fusion polypeptide)
B17: MLC081 (ligand)
chain: B5 chain with R20K, K32G, E66C, A81Q, Q82E, R180K, R202K, R218K
modifications: Moiety C (HOOC-(CH2)20-CO-gGlu-2XADO-EDA-CO-CH2) on 35C of Linker (66C of fusion polypeptide)
B18: MLC104 (ligand)
chain: B5 chain with K32G, P107K
modifications: Moiety A (HOOC-(CH2)16-CO-gGlu-2XADO) on 76K of Linker (107K of fusion polypeptide)
B19: MLC086 (ligand)
chain: B5 chain with R20K, K32G, G68C, A69Q, Q70A, R180K, R202K, R218K
modifications: Moiety C (HOOC-(CH2)20-CO-gGlu-2XADO-EDA-CO-CH2) on 37C of Linker (68C of fusion polypeptide)
B20: MLC017 (ligand)
chain: B5 chain with K32G, Q86K
modifications: Moiety A (HOOC-(CH2)16-CO-gGlu-2XADO) on 55K of Linker (86K of fusion polypeptide)
B21: MLC080 (ligand)
chain: B5 chain with R20K, K32G, E66C, A81Q, Q82E, R180K, R202K, R218K
modifications: Moiety B (HOOC-(CH2)16-CO-gGlu-2XADO-EDA-CO-CH2) on 35C of Linker (66C of fusion polypeptide)
B22: MLC064 (ligand)
chain: B5 chain with K32G, Q82K
modifications: Moiety A (HOOC-(CH2)16-CO-gGlu-2XADO) on 51K of Linker (82K of fusion polypeptide)
B23: MLC085 (ligand)
chain: B5 chain with R20K, K32G, G68C, A69Q, Q70A, R180K, R202K, R218K
modifications: Moiety B (HOOC-(CH2)16-CO-gGlu-2XADO-EDA-CO-CH2) on 37C of Linker (68C of fusion polypeptide)
B24: MLC005 (ligand)
chain: HGEGTFTSDVSSYLEEQAAREFIAWLVRGGGGQEPGQEPGQEKGQEPGQEPGQEPGQEPGQEPGAQPGAQPARQGDHCPLGPGRCCRLHTVRASLEDLGWADWVLSPREVQVTMCIGACPSQFRAANLHAQIKTSLHRLRPDTVPAPCCVPASYNPMVLIQRTDTGVSLQTYDDLLARDCHCI
modifications: Moiety A (HOOC-(CH2)16-CO-gGlu-2XADO) on 12K of Linker (43K of fusion polypeptide)
B25: MLC030 (ligand)
chain: HGEGTFTSDVSSYLEEQAAREFIAWLVRGGGGQEPGQEPGQEPGQKPGQEPGQEPGQEPGQEPGAQPGAQPGAQPGAQPGAQPGAQPGAQPGAQPGAQPGAQPGAQPGAQPARQGDHCPLGPGRCCRLHTVRASLEDLGWADWVLSPREVQVTMCIGACPSQFRAANLHAQIKTSLHRLRPDTVPAPCCVPASYNPMVLIQRTDTGVSLQTYDDLLARDCHCI
modifications: Moiety A (HOOC-(CH2)16-CO-gGlu-2XADO) on 15K of Linker (46K of fusion polypeptide)
B26: Native GDF15 (ligand)
chain: ARNGDHCPLGPGRCCRLHTVRASLEDLGWADWVLSPREVQVTMCIGACPSQFRAANMHAQIKTSLHRLKPDTVPAPCCVPASYNPMVLIQKTDTGVSLQTYDDLLAKDCHCI
B27: MLC127 (ligand)
chain: B1 chain with K20C, C72G
modifications: Moiety B (HOOC-(CH2)16-CO-gGlu-2XADO-EDA-CO-CH2) on 26C of GLP-1 (20C of fusion polypeptide)
B28: MLC122 (ligand)
chain: B1 chain with G36C, A37Q, Q38A, C72G
modifications: Moiety B (HOOC-(CH2)16-CO-gGlu-2XADO-EDA-CO-CH2) on 5C of Linker (36C of fusion polypeptide)
B29: MLC123 (ligand)
chain: B1 chain with C72G, A109Q, Q110C
modifications: Moiety B (HOOC-(CH2)16-CO-gGlu-2XADO-EDA-CO-CH2) on 79C of Linker (110C of fusion polypeptide)
B30: MLC126 (ligand)
chain: B1 chain with C72G, G104C
modifications: Moiety B (HOOC-(CH2)16-CO-gGlu-2XADO-EDA-CO-CH2) on 73C of Linker (104C of fusion polypeptide)

What follows are binders tested against T2, human GLP-1 receptor (human, UniProt P43220 24-463) (assay: cell-based or functional assay).

Row | Binder | GLP-1 activity (EC50, pM)
1 | B1 | 1.6 pM
2 | B2 | 2 pM
3 | B3 | 1.5 pM
4 | B4 | 2.2 pM
5 | B5 | 6.9 pM
6 | B6 | 1 pM
7 | B7 | 3.3 pM
8 | B8 | 2.5 pM
9 | B9 | 0.94 pM
10 | B10 | 1.3 pM
11 | B11 | 1.7 pM
12 | B12 | 1.3 pM
13 | B13 | 0.89 pM
14 | B14 | 1 pM
15 | B15 | 1.2 pM
16 | B16 | 8.3 pM
17 | B17 | 1.2 pM
18 | B18 | 0.88 pM
19 | B19 | 1.1 pM
20 | B20 | 2.8 pM
21 | B21 | 1.6 pM
22 | B22 | 1.3 pM
23 | B23 | 1.5 pM
24 | B24 | 3 pM
25 | B25 | 0.9 pM

The binders below were run against T1, human GFRAL (assay: cell-based or functional assay).

Row | Binder | GDF15 activity (EC50, pM)
26 | B26 | 8.1 pM
27 | B1 | 30.2 pM
28 | B2 | 34.9 pM
29 | B3 | 23.6 pM
30 | B4 | 48.6 pM
31 | B5 | 48.8 pM
32 | B6 | 59.4 pM
33 | B7 | 75.5 pM
34 | B8 | 110 pM
35 | B9 | 41.1 pM
36 | B10 | 48.6 pM
37 | B11 | 52.4 pM
38 | B12 | 70.5 pM
39 | B13 | 79.2 pM
40 | B14 | 78.9 pM
41 | B15 | 114 pM
42 | B16 | 17.3 pM
43 | B17 | 69.8 pM
44 | B18 | 79.4 pM
45 | B19 | 32.4 pM
46 | B20 | 77.6 pM
47 | B21 | 86.8 pM
48 | B22 | 116 pM
49 | B23 | 22 pM
50 | B24 | 20.3 pM
51 | B25 | 52.3 pM

Biological target: T2, human GLP-1 receptor
Experiment: cell-based or functional assay
Remark: another data set of the same source

Row | Binder | GLP-1 activity (EC50, pM, 1% HSA)
52 | B27 | 872 pM
53 | B28 | 434 pM
54 | B29 | 9.53 pM
55 | B30 | 9.67 pM

Biological target: T1, human GFRAL
Experiment: cell-based or functional assay
Remark: another data set of the same source

Row | Binder | GDF15 activity (EC50, pM, 1% HSA)
56 | B26 | 11.3 pM
57 | B27 | 72.8 pM
58 | B28 | 70.2 pM
59 | B29 | 1360 pM
60 | B30 | 1670 pM
